Experimental data from patent publication US20230279124A1.

Biological target: human IgE (human) (UniProt P01854)
Assay: BLI (Octet RED 384), GI-305 captured on AHC biosensor, IgE 1.6 to 100 nM as analyte

UniProt P01854, sequence (P01854 other isoform, or with tags, fused parts or gaps): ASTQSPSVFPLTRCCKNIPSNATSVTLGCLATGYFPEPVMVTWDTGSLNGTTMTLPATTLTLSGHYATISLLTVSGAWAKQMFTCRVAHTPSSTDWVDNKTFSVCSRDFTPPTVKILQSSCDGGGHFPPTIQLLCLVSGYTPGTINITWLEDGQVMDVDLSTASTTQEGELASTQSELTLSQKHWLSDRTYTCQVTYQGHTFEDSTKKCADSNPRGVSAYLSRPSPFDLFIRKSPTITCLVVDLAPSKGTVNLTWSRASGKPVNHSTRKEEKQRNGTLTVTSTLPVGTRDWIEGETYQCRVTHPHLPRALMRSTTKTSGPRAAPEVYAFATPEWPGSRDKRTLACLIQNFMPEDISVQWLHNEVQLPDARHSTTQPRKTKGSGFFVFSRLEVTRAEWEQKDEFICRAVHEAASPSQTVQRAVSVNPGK

B1: GI-305 (FcεRIα ECD-Fc-anti-IL-4R scFv) fusion protein dimer (Fc fusion)
chain: VPQKPKVSLNPPWNRIFKGENVTLTCNGNNFFEVSSTKWFHNGSLSEETNSSLNIVNAKFEDSGEYKCQHQQVNESEPVYLEVFSDWLLLQASAEVVMEGQPLFLRCHGWRNWDVYKVIYYKDGEALKYWYENHNISITNATVEDSGTYYCTGKVWQLDYESEPLNITVIKAPREKYWLQGSGGGGSGGGGSGGGGSAESKYGPPCPPCPAPEAAGGPSVFLFPPKPKDQLMISRTPEVTCVVVDVSQEDPEVQFNWYVDGVEVHNAKTKPREEQFNSTYRVVSVLTVLHQDWLNGKEYKCKVSNKGLPSSIEKTISKAKGQPREPQVYTLPPSQEEMTKNQVSLTCLVKGFYPSDIAVEWESNGQPENNYKTTPPVLDSDGSFFLYSRLTVDKSRWQEGNVFSCSVLHEALHNHYTQKSLSLSLGGGGGSGGGGSGGEVQLVESGGGLEQPGGSLRLSCAGSGFTFRDYAMTWVRQAPGKCLEWVSSISGSGGNTYYADSVKGRFTISRDNSKNTLYLQMNSLRAEDTAVYYCAKDRLSITIRPRYYGLDVWGQGTTVTVSSGGGGSGGGGSGGGGSGGGGSDIVMTQSPLSLPVTPGEPASISCRSSQSLLYSIGYNYLDWYLQKSGQSPQLLIYLGSNRASGVPDRFSGSGSGTDFTLKISRVEAEDVGFYYCMQALQTPYTFGCGTKLEIK
Kd: 0.5 nM
koff: 9.74e-05 s⁻¹
kon: 201000 M⁻¹ s⁻¹
